Assay [1] concerns the target T1, human NOP (Homo sapiens, UniProt P41146). Kind of assay: Calcium mobilization assay, CHO cells with NOP receptor and chimeric G protein. In kind it is cell-based. Also on record: expressed in transfected cells. The conditions noted are these: for EC50: CHO cells coexpressing human NOP and Gαqi5, Fluo-4, 37 °C, mean (CL95%), N = 5 experiments in duplicate, read-out: Ca^2+ mobilization pEC50 (CL95%) (converted); for Ca^2+ mobilization E max ± sem: CHO cells coexpressing human NOP and Gαqi5, maximum change in percentage over baseline fluorescence, mean ± sem, N = 5 in duplicate. The procedure: Chinese hamster ovary (CHO) cells stably coexpressing the human NOP, μ, or κ opioid receptors and the Gαqi5 protein or the human δ and the GαqG66Di5 protein were used in this assay. , Cells were cultured in DMEM/F-12 (1:1) medium supplemented with 10% FBS, 2 mM L-glutamine, […], 100 IU/mL penicillin, and 100 IU/mL streptomycin. Cells were maintained at 37 °C in a humidified atmosphere with 5% CO2 and were seeded at 50 000 cells/well into 96-well black, clear-bottom plates 24 h before test. Loading for 45 min with a solution consisting of HBSS supplemented with 2.5 mM probenecid, 3 μM Fluo-4 AM, and 0.01% pluronic acid ensures the calcium-sensitive dye (Fluo-4) reaches the needed concentration inside the cell, while the exchange of the solution with 100 μL/well of buffer consisting of HBSS with 20 mM HEPES, 2.5 mM probenecid, and 500 μM Brilliant Black allows for fluorescence background to decrease. Serial dilutions of ligands were prepared in HBSS buffer with 20 mM HEPES and 0.02% bovine serum albumin (BSA) to minimize the ligands’ stickiness to plasticware. The automated microplate reader FlexStation II (Molecular Devices, CA, US) was employed at 37 °C to detect changes in fluorescence intensity. The effects of all compounds were expressed as the maximum change in percentage over the baseline fluorescence measured in samples treated with vehicles.
(§1) Concentration-response curves to agonists were analyzed by a four-parameter logistic nonlinear regression model: Effect = baseline + (E max – baseline)/(1 + 10^((logEC50–log[ligand])slope)). […] Experimental data were expressed as mean ± sem of at least 5 experiments. Potency values were expressed as the mean and CL95%. In vitro E max values were analyzed by one-way ANOVA, while in vivo latency data were evaluated by one-way ANOVA followed by Dunnett’s post hoc test. The proportion of mice losing the righting reflex was compared by Fisher’s exact test performed on raw data. GraphPad Prism 10.0 software was used for all of the analyses. The terminology employed is consistent with the International Union of Basic and Clinical Pharmacology (IUPHAR) recommendations. ,
(In general: Calcium flux is commonly read through the fluorescence of an indicator in the cells.)

For assay [2], the target named is T1, human NOP. Kind of assay: NOP receptor–G protein interaction BRET assay. The conditions noted are these: N = 5 experiments in duplicate; for EC50: membranes from HEK293 cells coexpressing NOP-RLuc and Gβ1-RGFP, room temperature, mean (CL95%), read-out: NOP–G protein interaction pEC50 (CL95%) (converted). More on the design: expressed in transfected cells; host or cells: membranes of HEK293 cells stably coexpressing NOP-RLuc and Gβ1-RGFP. In kind it is biochemical. How it is done:
A BRET interaction assay was used, as previously detailed in ref , to study the propensity of ligands to evoke interaction between the NOP receptor and to G protein. Membranes taken from HEK293 cells stably coexpressing the fusoproteins NOP-RLuc and Gβ1-RGFP were used. Such cells were grown in DMEM medium supplemented with 10% FBS, 2 mM L-glutamine, […] G418, […] hygromycin B, 100 IU/mL penicillin, and 100 IU/mL streptomycin in a humidified atmosphere with 5% CO2 at 37 °C. Cell membranes were thawed and resuspended in PBS supplemented with 0.01% BSA before the assay, and an amount of 3 μg of total protein was dispensed in each of the 96 wells together with 2 μM Prolume Purple Coelenterazine. All experiments were carried out at room temperature. Ligands were added, and averaged BRET ratios from 10 min measurements were computed. BRET ratios were computed as counts per second (CPS) obtained on a Victor Nivo (PerkinElmer) with 405 (10) nm and 510 (30) nm bandpass filters. Vehicles’ BRET ratios were derived from light passed through 510 divided by that passed through 405 filters. Vehicles BRET values were subtracted from all computations, and data sets were normalized as a fraction of N/OFQ maximal effects.
as §1
A general note: BRET reads energy transfer from a luciferase to a nearby fluorophore.

The next assay deals with NOP-RLuc (UniProt P41146). To be noted: for E max, NOP–G protein interaction (BRET), normalised to N/OFQ-NH2 (E max = 1): scale: fraction of the maximal effect of N/OFQ-NH2.
Assay [3] addresses human nociceptin/orphanin FQ (N/OFQ) peptide receptor (human) (UniProt P41146).

Bridge positions count the residues as written; N and C are the ends. Ends that are not written are not given here. Peptide text beside a SMILES is read from it. I, II: the chains in the order shown.

T1 sequence (P41146 whole entry): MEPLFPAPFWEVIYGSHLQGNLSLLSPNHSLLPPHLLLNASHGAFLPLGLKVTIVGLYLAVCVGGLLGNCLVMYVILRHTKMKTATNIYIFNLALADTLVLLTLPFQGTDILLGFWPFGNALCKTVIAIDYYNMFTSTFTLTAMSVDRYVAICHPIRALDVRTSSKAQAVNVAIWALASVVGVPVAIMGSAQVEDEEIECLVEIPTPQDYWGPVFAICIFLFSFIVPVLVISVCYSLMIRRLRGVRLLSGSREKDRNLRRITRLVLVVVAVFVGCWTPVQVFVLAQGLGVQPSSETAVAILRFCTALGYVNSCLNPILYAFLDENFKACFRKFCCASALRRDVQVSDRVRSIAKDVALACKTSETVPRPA
Sequence of human nociceptin/orphanin FQ (N/OFQ) peptide receptor (human) (P41146 whole entry): as above
Sequence of NOP-RLuc (P41146 whole entry): as above

Regarding `CC(C)C[C@H](NC(=O)[C@H](CCCCN)NC(=O)[C@H](CCCNC(=N)N)NC(=O)[C@H](C)NC(=O)[C@H](CO)NC(=O)[C@H](CCCCN)NC(=O)[C@H](CSSC[C@H](NC(=O)[C@H](C)NC(=O)CNC(=O)[C@@H](NC(=O)[C@H](Cc1ccccc1)NC(=O)CNC(=O)CNC(=O)[C@@H](N)Cc1ccccc1)[C@@H](C)O)C(=O)N[C@@H](CCCCN)C(=O)N[C@@H](CO)C(=O)N[C@@H](C)C(=O)N[C@@H](CCCNC(=N)N)C(=O)N[C@@H](CCCCN)C(=O)N[C@@H](CC(C)C)C(=O)N[C@@H](C)C(=O)N[C@@H](CC(N)=O)C(=O)N[C@@H](CCC(N)=O)C(N)=O)NC(=O)[C@H](C)NC(=O)CNC(=O)[C@@H](NC(=O)[C@H](Cc1ccccc1)NC(=O)CNC(=O)CNC(=O)[C@@H](N)Cc1ccccc1)[C@@H](C)O)C(=O)N[C@@H](C)C(=O)N[C@@H](CC(N)=O)C(=O)N[C@@H](CCC(N)=O)C(N)=O` [1b, [[Cys^8]N/OFQ-NH2]2] (I: H-FGGFTGACKSARKLANQ-NH2 / II: H-FGGFTGACKSARKLANQ-NH2; disulfide I:8-II:8), the EC50 on human NOP [1] was 43.7 nM; at human NOP [2], 9.12 nM. The “Ca^2+ mobilization E max ± sem” value on human NOP [1] amounted to 322 ± 20 % over the baseline.
Turning to `CC(C)C[C@H](NC(=O)[C@H](CCCCN)NC(=O)[C@H](CCCNC(=N)N)NC(=O)[C@H](C)NC(=O)[C@H](CO)NC(=O)[C@H](CCCCN)NC(=O)[C@H](CCCNC(=N)N)NC(=O)[C@H](CSSC[C@H](NC(=O)CNC(=O)[C@@H](NC(=O)[C@H](Cc1ccccc1)NC(=O)CNC(=O)CNC(=O)[C@@H](N)Cc1ccccc1)[C@@H](C)O)C(=O)N[C@@H](CCCNC(=N)N)C(=O)N[C@@H](CCCCN)C(=O)N[C@@H](CO)C(=O)N[C@@H](C)C(=O)N[C@@H](CCCNC(=N)N)C(=O)N[C@@H](CCCCN)C(=O)N[C@@H](CC(C)C)C(=O)N[C@@H](C)C(=O)N[C@@H](CC(N)=O)C(=O)N[C@@H](CCC(N)=O)C(N)=O)NC(=O)CNC(=O)[C@@H](NC(=O)[C@H](Cc1ccccc1)NC(=O)CNC(=O)CNC(=O)[C@@H](N)Cc1ccccc1)[C@@H](C)O)C(=O)N[C@@H](C)C(=O)N[C@@H](CC(N)=O)C(=O)N[C@@H](CCC(N)=O)C(N)=O` [1a, [[Cys^7]N/OFQ-NH2]2] (I: H-FGGFTGCRKSARKLANQ-NH2 / II: H-FGGFTGCRKSARKLANQ-NH2; disulfide I:7-II:7), on human NOP [1], the EC50 is 26.9 nM and the “Ca^2+ mobilization E max ± sem” value was 293 ± 18 % over the baseline. Besides, the “NOP–G protein interaction E max ± sem” value on human NOP [2] (effects normalized to N/OFQ-NH2 (E max = 1), mean ± sem) stood at 1.09 ± 0.09. For the same molecule, the EC50 on human NOP [2] is 1.95 nM.
Regarding FGGFTGARKSACKLANQ-NH2 (also: homodimer: Cys12-Cys12 disulfide to second copy) [[[Cys^12]N/OFQ-NH2]2], in the assay with NOP-RLuc, the pEC50, NOP–G protein interaction (BRET, membranes of HEK293 cells with NOP-RLuc and Gβ1-RGFP) was determined as 8.9 pEC50; the E max, NOP–G protein interaction (BRET), normalised to N/OFQ-NH2 (E max = 1) came out at 1.07. In assay [3], this molecule yielded an E max, Ca^2+ mobilization in CHO cells with human NOP and Gαqi5 (% over baseline) of 346; a pEC50, Ca^2+ mobilization in CHO cells with human NOP and Gαqi5 of 8.52 pEC50.
In the assay with NOP-RLuc, FGGFTGARCSARKLANQ-NH2 (also: homodimer: Cys9-Cys9 disulfide to second copy) [[[Cys^9]N/OFQ-NH2]2] returned a pEC50, NOP–G protein interaction (BRET, membranes of HEK293 cells with NOP-RLuc and Gβ1-RGFP) of 8.87 pEC50; an E max, NOP–G protein interaction (BRET), normalised to N/OFQ-NH2 (E max = 1) of 1.03. In assay [3], this molecule displayed an E max, Ca^2+ mobilization in CHO cells with human NOP and Gαqi5 (% over baseline) of 289; a pEC50, Ca^2+ mobilization in CHO cells with human NOP and Gαqi5 of 8.3 pEC50.
Take FGGFTGCRKSARKLANQ-NH2 (also: homodimer: Cys7-Cys7 disulfide to second copy) [[[Cys^7]N/OFQ-NH2]2]: in the assay with NOP-RLuc, the pEC50, NOP–G protein interaction (BRET, membranes of HEK293 cells with NOP-RLuc and Gβ1-RGFP) worked out at 8.71 pEC50; the E max, NOP–G protein interaction (BRET), normalised to N/OFQ-NH2 (E max = 1) came out at 1.09. In assay [3], the E max, Ca^2+ mobilization in CHO cells with human NOP and Gαqi5 (% over baseline) stood at 293; the pEC50, Ca^2+ mobilization in CHO cells with human NOP and Gαqi5 came out at 7.57 pEC50.
For FGGFTGACKSARKLANQ-NH2 (also: homodimer: Cys8-Cys8 disulfide to second copy) [[[Cys^8]N/OFQ-NH2]2], in that order: 8.04 pEC50, 1.04, 322 and 7.36 pEC50.
For FGGFTGARKSARKLCNQ-NH2 (also: homodimer: Cys15-Cys15 disulfide to second copy) [[[Cys^15]N/OFQ-NH2]2], in that order: 9.71 pEC50, 0.95, 297 and 8.53 pEC50.
With FGGFTGARKSARKLACQ-NH2 (also: homodimer: Cys16-Cys16 disulfide to second copy) [[[Cys^16]N/OFQ-NH2]2], in the assay with NOP-RLuc, the pEC50, NOP–G protein interaction (BRET, membranes of HEK293 cells with NOP-RLuc and Gβ1-RGFP) is 9.76 pEC50; the E max, NOP–G protein interaction (BRET), normalised to N/OFQ-NH2 (E max = 1) is 0.98. In assay [3], this molecule came in with an E max, Ca^2+ mobilization in CHO cells with human NOP and Gαqi5 (% over baseline) of 312; a pEC50, Ca^2+ mobilization in CHO cells with human NOP and Gαqi5 of 8.86 pEC50.
In the assay with NOP-RLuc, FGGFTGARKSARCLANQ-NH2 (also: homodimer: Cys13-Cys13 disulfide to second copy) [[[Cys^13]N/OFQ-NH2]2] showed a pEC50, NOP–G protein interaction (BRET, membranes of HEK293 cells with NOP-RLuc and Gβ1-RGFP) of 9.52 pEC50; an E max, NOP–G protein interaction (BRET), normalised to N/OFQ-NH2 (E max = 1) of 0.84. Further, in assay [3], the E max, Ca^2+ mobilization in CHO cells with human NOP and Gαqi5 (% over baseline) is 247; the pEC50, Ca^2+ mobilization in CHO cells with human NOP and Gαqi5 was 8.79 pEC50.
Take FGGFTGARKCARKLANQ-NH2 (also: homodimer: Cys10-Cys10 disulfide to second copy) [[[Cys^10]N/OFQ-NH2]2]: in the assay with NOP-RLuc, the pEC50, NOP–G protein interaction (BRET, membranes of HEK293 cells with NOP-RLuc and Gβ1-RGFP) worked out at 9.85 pEC50; the E max, NOP–G protein interaction (BRET), normalised to N/OFQ-NH2 (E max = 1) was 1.07. In assay [3], the E max, Ca^2+ mobilization in CHO cells with human NOP and Gαqi5 (% over baseline) was found to be 305; the pEC50, Ca^2+ mobilization in CHO cells with human NOP and Gαqi5 worked out at 8.72 pEC50.

The values above are taken from paper PMC12621184, “Synthesis and Pharmacological Characterization of Nociceptin/Orphanin FQ Dimeric Ligands” (Journal of Medicinal Chemistry, 2025).
